Assay results published in patent publication US20170240632A1, “COMPOSITIONS AND METHODS FOR IDENTIFYING AND TREATING CACHEXIA OR PRE-CACHEXIA” (THE BROAD INSTITUTE INC., priority 2014, published 2017).
Entries after “also recorded” stand apart in the source; their conditions may differ.

B1: S100B: recombinant S100 family protein, RAGE ligand (protein, listed as Homo sapiens)
chain: MSELEKAMVALIDVFHQYSGREGDKHKLKKSELKELINNELSHFLEEIKEQEVVDKVMETLDNDGDGECDFQEFMAFVAMVTTACHEFFEHE
B2: S100A8: recombinant S100 family protein, RAGE ligand (protein, listed as Homo sapiens)
chain: MLTELEKALNSIIDVYHKYSLIKGNFHAVYRDDLKKLLETECPQYIRKKGADVWFKELDINTDGAVNFQEFLILVIKMGVAAHKKSHEESHKE
B3: Calprotectin: homodimers, heterodimers and heterotetramers of S100A8 and S100A9 (protein, UniProt P05109 1-93; P06702 1-114, looked up)
Protein S100-A8: B2 chain
Protein S100-A9: MTCKMSQLERNIETIINTFHQYSVKLGHPDTLNQGEFKELVRKDLQNFLKKENKNEKVIEHIMEDLDTNADKQLSFEEFIMLMARLTWASHEKMHEGDEGPGHHHKPGLGEGTP
B4: S100A7: recombinant S100 family protein, RAGE ligand (protein, listed as Homo sapiens)
chain: MSNTQAERSIIGMIDMFHKYTRRDDKIEKPSLLTMMKENFPNFLSACDKKGTNYLADVFEKKDKNEDKKIDFSEFLSLLGDIATDYHKQSHGAAPCSGGSQ
B5: HMGB1: high mobility group box 1, RAGE ligand (protein, UniProt P09429 1-215, looked up)
High mobility group protein B1: MGKGDPKKPRGKMSSYAFFVQTCREEHKKKHPDASVNFSEFSKKCSERWKTMSAKEKGKFEDMAKADKARYEREMKTYIPPKGETKKKFKDPNAPKRPPSAFFLFCSEYRPKIKGEHPGLSIGDVAKKLGEMWNNTAADDKQPYEKKAAKLKEKYEKDIAAYRAKGKPDAAKKGVVKAEKSKKKKEEEEDEEDEEDEEEEEDEEDEDEEEDDDDE
B6: S100A9: recombinant S100 family protein, RAGE ligand (protein, listed as Homo sapiens)
chain: B3 Protein S100-A9

Test system: Primary human myoblast differentiated into terminal myotubes
Assay: Cachexia induction by recombinant S100/HMGB1 proteins, myosin HC in-cell Western
Assay type: cell-based
Details: recombinant ligands in Hanks Balance Salt Solution applied 1:2 v:v to fresh maintenance media each day for 3 days
Method: FIG. 1 is a graph showing the differential cachexia-inducing activity of r-S100 faimily proteins. All rpooteins are tested in HBSS buffer. Myosin HC is measured in an in-cell Western assay.
FIGS. 1-4 illustrate the effect of various proteins of the S100 family, as well as HMGB1, as cachexia inducers when conmpared with cachexia-inducing media. Primary human myoblast were plated and differentiated into terminal myotubes as previously described. Recombinant ligands were prepared at the same dose curve in Hanks Balance Salt Solution (buffer) and applied 1:2 v:v to fresh maintenance media each day for 3 days. Cells were assessed for myosin HC content by in-cell Western staining as previously described.

Row | Molecule | induction of the cachectic phenotype (myosin HC content) | induction of the cachectic phenotype (myosin HC content) (listed as A8) | induction of the cachectic phenotype (myosin HC content) (listed as S100 A7) | induction of the cachectic phenotype (myosin HC content) (listed as A9)
1 | B1 | little or no activity; also recorded: do not induce precachexia and/or cachexia | – | – | –
2 | B2 | key effector molecules in inducing precachexia and/or cachexia | inducers of the cachectic phenotype | – | –
3 | B3 | key effector molecules in inducing precachexia and/or cachexia | – | – | –
4 | B4 | key effector molecules in inducing precachexia and/or cachexia | – | inducers of the cachectic phenotype | –
5 | B5 | do not induce precachexia and/or cachexia; also recorded: not cachexogenic in muscle | – | – | –
6 | B6 | key effector molecules in inducing precachexia and/or cachexia | – | – | inducers of the cachectic phenotype
